Test results published in patent US20180142032A1 (Sanofi, published 2018).

What was measured:
Assay in all cases: flow cytometry, transfected 293-F cells, experiment 2
[1] = target: T1, hLAMP1_ΔGYQTI (human, UniProt P11279 29-412)
T1 construct: also called pXL5626
T1 sequence: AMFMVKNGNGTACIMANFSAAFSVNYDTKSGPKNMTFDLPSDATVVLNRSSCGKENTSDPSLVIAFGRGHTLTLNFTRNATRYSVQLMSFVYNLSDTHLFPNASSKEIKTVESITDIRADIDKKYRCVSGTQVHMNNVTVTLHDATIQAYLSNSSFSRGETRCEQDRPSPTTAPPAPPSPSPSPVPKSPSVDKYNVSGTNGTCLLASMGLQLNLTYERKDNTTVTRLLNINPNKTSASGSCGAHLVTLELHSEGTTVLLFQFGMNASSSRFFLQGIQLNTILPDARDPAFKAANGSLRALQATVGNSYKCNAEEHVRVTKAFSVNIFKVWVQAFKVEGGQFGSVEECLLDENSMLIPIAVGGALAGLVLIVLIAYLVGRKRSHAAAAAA

[2] = target: T2, mLAMP1_ΔGYQTI (mouse, UniProt P11438 25-369)
T2 construct: on cells; also called pXL6009; murine LAMP1; not shown: murine transmembrane domain and cytoplasmic tail with GYQTI replaced by 5 Ala
T2 sequence: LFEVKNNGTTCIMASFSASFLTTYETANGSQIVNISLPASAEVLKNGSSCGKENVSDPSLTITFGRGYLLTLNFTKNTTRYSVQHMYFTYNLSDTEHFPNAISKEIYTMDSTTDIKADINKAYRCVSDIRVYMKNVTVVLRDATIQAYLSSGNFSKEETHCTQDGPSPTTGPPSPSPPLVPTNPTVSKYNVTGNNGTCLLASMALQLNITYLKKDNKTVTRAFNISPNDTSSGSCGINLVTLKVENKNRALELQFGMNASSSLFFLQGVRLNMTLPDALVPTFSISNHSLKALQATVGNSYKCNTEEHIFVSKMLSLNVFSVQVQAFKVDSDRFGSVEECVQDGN

[3] = target: T3, mLAMP1_hseq6-11_ΔGYQTI (mouse; human, UniProt P11438 25-369)
T3 construct: on cells; also called pXL6041; not shown: murine transmembrane domain and cytoplasmic tail with GYQTI replaced by 5 Ala
T3 chain: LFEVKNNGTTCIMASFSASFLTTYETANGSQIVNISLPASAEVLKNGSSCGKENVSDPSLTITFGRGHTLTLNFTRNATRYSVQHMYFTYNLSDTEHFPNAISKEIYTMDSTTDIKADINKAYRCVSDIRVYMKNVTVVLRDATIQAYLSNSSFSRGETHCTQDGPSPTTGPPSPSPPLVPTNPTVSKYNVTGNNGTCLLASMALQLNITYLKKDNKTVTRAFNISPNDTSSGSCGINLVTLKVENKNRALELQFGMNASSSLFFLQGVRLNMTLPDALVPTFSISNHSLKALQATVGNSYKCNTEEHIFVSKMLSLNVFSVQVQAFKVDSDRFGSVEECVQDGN

[4] = target: T4, mLAMP1_hseq6_ΔGYQTI (mouse; human, UniProt P11438 25-369)
T4 construct: on cells; numbering read as for pXL6041; also called pXL6047; not shown: murine transmembrane domain and cytoplasmic tail with GYQTI replaced by 5 Ala
T4 chain: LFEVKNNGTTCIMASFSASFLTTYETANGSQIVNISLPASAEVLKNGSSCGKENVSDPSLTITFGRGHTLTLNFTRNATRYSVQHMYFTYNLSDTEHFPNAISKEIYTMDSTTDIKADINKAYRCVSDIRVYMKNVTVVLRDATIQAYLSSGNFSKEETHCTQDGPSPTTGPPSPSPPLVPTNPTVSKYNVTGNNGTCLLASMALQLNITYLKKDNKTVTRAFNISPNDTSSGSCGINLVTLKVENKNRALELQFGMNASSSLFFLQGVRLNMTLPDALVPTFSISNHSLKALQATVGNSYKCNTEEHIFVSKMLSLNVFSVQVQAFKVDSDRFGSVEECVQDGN

[5] = target: T5, mLAMP1_hseq11_ΔGYQTI (mouse; human, UniProt P11438 25-369)
T5 construct: on cells; numbering read as for pXL6041; also called pXL6048; not shown: murine transmembrane domain and cytoplasmic tail with GYQTI replaced by 5 Ala
T5 chain: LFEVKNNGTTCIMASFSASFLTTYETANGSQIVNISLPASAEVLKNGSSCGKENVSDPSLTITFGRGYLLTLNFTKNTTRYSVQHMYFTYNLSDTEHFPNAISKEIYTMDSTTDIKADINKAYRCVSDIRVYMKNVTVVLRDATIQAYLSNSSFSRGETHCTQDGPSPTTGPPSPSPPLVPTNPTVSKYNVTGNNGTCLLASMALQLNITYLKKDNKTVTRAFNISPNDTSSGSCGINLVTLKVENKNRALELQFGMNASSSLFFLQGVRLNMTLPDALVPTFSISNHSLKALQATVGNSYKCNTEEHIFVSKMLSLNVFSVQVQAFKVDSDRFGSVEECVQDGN

[6] = target: T6, mLAMP1_hseq6-9-11_ΔGYQTI (mouse; human, UniProt P11438 25-369)
T6 construct: on cells; numbering read as for pXL6041; also called pXL6092; not shown: murine transmembrane domain and cytoplasmic tail with GYQTI replaced by 5 Ala
T6 chain: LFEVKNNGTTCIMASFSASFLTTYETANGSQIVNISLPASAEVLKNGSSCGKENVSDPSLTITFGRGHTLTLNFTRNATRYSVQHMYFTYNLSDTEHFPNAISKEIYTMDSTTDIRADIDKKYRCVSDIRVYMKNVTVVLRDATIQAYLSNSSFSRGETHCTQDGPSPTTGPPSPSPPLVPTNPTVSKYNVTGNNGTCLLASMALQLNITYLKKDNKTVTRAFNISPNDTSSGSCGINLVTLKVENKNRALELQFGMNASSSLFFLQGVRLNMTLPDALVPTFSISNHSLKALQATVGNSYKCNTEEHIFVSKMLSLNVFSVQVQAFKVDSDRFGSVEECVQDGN

B1: MAb1 (antibody, mouse IgG2a, kappa)
heavy: QVQLQQSGAELVKPGASVKMSCKASGYIFTNYNIHWVKKSPGQGLEWIGAIYPGNGDAPYSQKFKDKATLTADKSSSTTYMQLSRLTSEDSAVYYCVRANWDVAFAYWGQGTLVSVSAAKTTAPSVYPLAPVCGDTTGSSVTLGCLVKGYFPEPVTLTWNSGSLSSGVHTFPAVLQSDLYTLSSSVTVTSSTWPSQSITCNVAHPASSTKVDKKIEPRGPTIKPCPPCKCPAPNLLGGPSVFIFPPKIKDVLMISLSPIVTCVVVDVSEDDPDVQISWFVNNVEVHTAQTQTHREDYNSTLRVVSALPIQHQDWMSGKEFKCKVNNKDLPAPIERTISKPKGSVRAPQVYVLPPPEEEMTKKQVTLTCMVTDFMPEDIYVEWTNNGKTELNYKNTEPVLDSDGSYFMYSKLRVEKKNWVERNSYSCSVVHEGLHNHHTTKSFSRTPGK
light: DIQMTQSPPSLSASLGGKVTITCKASQDIDRYMAWYQDKPGKGPRLLIHDTSTLQPGIPSRFSGSGSGRDYSFSISNLEPEDIATYYCLQYDNLWTFGGGTKLEIKRADAAPTVSIFPPSSEQLTSGGASVVCFLNNFYPKDINVKWKIDGSERQNGVLNSWTDQDSKDSTYSMSSTLTLTKDEYERHNSYTCEATHKTSTSPIVKSFNRNEC
notes: murine monoclonal IgG, kappa, from hybridoma; also called murine MAb1
- mean fluorescence [1]: 551
- mean fluorescence [2]: 2
- mean fluorescence [3]: 211
- mean fluorescence [4]: 3
- mean fluorescence [5]: 2
- mean fluorescence [6]: 499
